The values that follow come from patent US8067005.

For this assay, the target named is T1, human TNF (human, UniProt P01375 77-233).
T1 construct: Passed over captured antibody in solution; also called human TNFα
The assay is described as follows: SPR (BIAcore); antibody captured by immobilized anti-Fab′ antibody, human TNF passed over. Background: In SPR one partner is held on a chip, and binding of the other changes the refractive index at the surface.

T1 sequence (P01375 77-233 limits assumed): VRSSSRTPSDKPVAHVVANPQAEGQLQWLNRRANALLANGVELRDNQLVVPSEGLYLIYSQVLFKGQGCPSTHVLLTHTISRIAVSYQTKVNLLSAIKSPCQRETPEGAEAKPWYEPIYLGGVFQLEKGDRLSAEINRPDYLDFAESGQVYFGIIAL

B1: hTNF40 IgG (antibody, V domains shown)
VH: QIQLVQSGPELKKPGETVKISCKASGYVFTDYGMNWVKQAPGKAFKWMGWINTYIGEPIYVDDFKGRFAFSLETSASTAFLQINNLKNEDTATYFCARGYRSYAMDYWGQGTSVTVSS
VL: DIVMTQSQKFMSTSVGDRVSVTCKATQNVGTNVAWYQQKPGQSPKALIYSASFLYSGVPYRFTGSGSGTDFTLTISTVQSEDLAEYFCQQYNIYPLTFGAGTKLELKR
In general, Kd refers to the free concentration of one partner at which half of the binding sites on the other are occupied at equilibrium, for simple one-to-one binding. The low end stands for higher affinity, the high end for lower affinity. Turning to B1, binding was put at a Kd of 0.179 nM.
